Here are results for 45 substances from patent publication US10227388B2, “Peptides and combination of peptides for use in immunotherapy against non-small cell lung cancer and other cancers” (immatics biotechnologies GmbH, priority 2015, dated 2019).

In this assay the target is HLA-A*02:01 (Homo sapiens, UniProt P04439, D140Y/D185E/D98H/E176V/E277Q/G131W/G231S/I119V/I121R/I166T/I218V/L300P/L318F/N151K/N90K/P208A/P217A/Q86G/Q94H/R138H/R169H/T345S). Briefly: MHC binding assay (UV-ligand exchange, ELISA, peptide exchange yield). As to conditions: binding of HLA-class I restricted peptides to HLA-A*02:01. A digest of the protocol:
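Peptide–HLA-A*02:01 complexes made by UV-ligand exchange of a UV-cleavable peptide for the test peptide. Exchange yield measured by ELISA: 100-fold diluted monomers captured on streptavidin, 1 h at 37° C., detected with HRP anti-β2m and TMB, absorbance at 450 nm.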
A general note: ELISA stands for enzyme-linked immunosorbent assay.
Regarding “315 (YLQDVVEQA; listed as Homo sapiens) [compound 315]”, the “Peptide exchange (MHC class I binding score, peptide exchange yield)” value (shortened to “Peptide exchange”) was “″+++″ (≥50% = +++)”. With “316 (ILLERLWYV; listed as Homo sapiens) [compound 316]” the entry was “″+++″ (≥50% = +++)”.

On to “317 (SLAALVVHV; listed as Homo sapiens) [compound 317]”, for which the “Peptide exchange” value is given as “″+++″ (≥50% = +++)”. Then “318 (GLINTGVLSV; listed as Homo sapiens) [compound 318]”, with “″++″ (≥20% = ++)”.

Regarding “320 (KMFEFVEPLL; listed as Homo sapiens) [compound 320]”, the “Peptide exchange” value is “″++++″ (≥75% = ++++)”. Then “321 (GLFEDVTQPGILL; listed as Homo sapiens) [compound 321]”, with “″++++″ (≥75% = ++++)”; and “322 (TLMTSLPAL; listed as Homo sapiens) [compound 322]”, with “″+++″ (≥50% = +++)”; and “324 (FLYDEIEAEV; listed as Homo sapiens) [compound 324]”, with “″+++″ (≥50% = +++)”. “325 (FIMPATVADATAV; listed as Homo sapiens) [compound 325]”: the “Peptide exchange” value was “″+++″ (≥50% = +++)”.

Turning to “326 (FLPEALDFV; listed as Homo sapiens) [compound 326]”, the “Peptide exchange” value is “″+++″ (≥50% = +++)”. Then “327 (GLAPFTEGISFV; listed as Homo sapiens) [compound 327]”, with “″+++″ (≥50% = +++)”.

As to “328 (ALNDQVFEI; listed as Homo sapiens) [compound 328]”, the “Peptide exchange” value is “″+++″ (≥50% = +++)”. On to “329 (FLVTLNNVEV; listed as Homo sapiens) [compound 329]”, for which the “Peptide exchange” value is “″++++″ (≥75% = ++++)”.

“330 (QLALKVEGV; listed as Homo sapiens) [compound 330]”: the “Peptide exchange” value is “″+++″ (≥50% = +++)”. Then “331 (KVDTVWVNV; listed as Homo sapiens) [compound 331]”, with “″+++″ (≥50% = +++)”; and “332 (YLISELEAA; listed as Homo sapiens) [compound 332]”, with “″+++″ (≥50% = +++)”. With “333 (FLPDANSSV; listed as Homo sapiens) [compound 333]” the entry was “″++″ (≥20% = ++)”; with “334 (TLTKVLVAL; listed as Homo sapiens) [compound 334]”, “″+++″ (≥50% = +++)”; with “335 (YSLSSVVTV; listed as Homo sapiens) [compound 335]”, “″+++″ (≥50% = +++)”. With “336 (ILLTAIVQV; listed as Homo sapiens) [compound 336]” the entry was “″+++″ (≥50% = +++)”; with “337 (HLLSELEAAPYL; listed as Homo sapiens) [compound 337]”, “″++++″ (≥75% = ++++)”. Take “339 (GLWEIENNPTVKA; listed as Homo sapiens) [compound 339]”: the “Peptide exchange” value is recorded as “″++++″ (≥75% = ++++)”.

Take “340 (ALLSMTFPL; listed as Homo sapiens) [compound 340]”: the “Peptide exchange” value was “″++++″ (≥75% = ++++)”. Then “341 (SQIALNEKLVNL; listed as Homo sapiens) [compound 341]”, with “″+++″ (≥50% = +++)”; and “342 (HIYDKVMTV; listed as Homo sapiens) [compound 342]”, with “″+++″ (≥50% = +++)”. As for “343 (SLLEVNEESTV; listed as Homo sapiens) [compound 343]”, the “Peptide exchange” value is listed as “″+++″ (≥50% = +++)”.

Regarding “344 (YLQDQHLLLTV; listed as Homo sapiens) [compound 344]”, the “Peptide exchange” value is recorded as “″+++″ (≥50% = +++)”.

Consider “345 (VIWKALIHL; listed as Homo sapiens) [compound 345]”, for which the “Peptide exchange” value is given as “″+++″ (≥50% = +++)”. Then “346 (LLDSKVPSV; listed as Homo sapiens) [compound 346]”, with “″+++″ (≥50% = +++)”; and “347 (SLFKHDPAAWEA; listed as Homo sapiens) [compound 347]”, with “″++++″ (≥75% = ++++)”; and “348 (ILLDVKTRL; listed as Homo sapiens) [compound 348]”, with “″++++″ (≥75% = ++++)”. With “349 (SLTEYLQNV; listed as Homo sapiens) [compound 349]” the entry was “″++++″ (≥75% = ++++)”; with “350 (ALLDVTHSELTV; listed as Homo sapiens) [compound 350]”, “″+++″ (≥50% = +++)”; with “351 (SLIPNLRNV; listed as Homo sapiens) [compound 351]”, “″+++″ (≥50% = +++)”. With “352 (SLLELLHIYV; listed as Homo sapiens) [compound 352]” the entry was “″+++″ (≥50% = +++)”; with “353 (YLFEMDSSL; listed as Homo sapiens) [compound 353]”, “″++″ (≥20% = ++)”. As to “354 (LILEGVDTV; listed as Homo sapiens) [compound 354]”, the “Peptide exchange” value is on record as “″++″ (≥20% = ++)”. In the case of “355 (SIQQSIERLLV; listed as Homo sapiens) [compound 355]”, the “Peptide exchange” value was “″++″ (≥20% = ++)”. Then “356 (KLLGKLPEL; listed as Homo sapiens) [compound 356]”, with “″+++″ (≥50% = +++)”; and “357 (SMHDLVLQV; listed as Homo sapiens) [compound 357]”, with “″+++″ (≥50% = +++)”. Then “358 (ALDEYTSEL; listed as Homo sapiens) [compound 358]”, with “″++++″ (≥75% = ++++)”. With “359 (YLLPESVDL; listed as Homo sapiens) [compound 359]” the entry was “″+++″ (≥50% = +++)”; with “361 (ALYELEGTTV; listed as Homo sapiens) [compound 361]”, “″+++″ (≥50% = +++)”. Turning to “362 (TLYGLSVLL; listed as Homo sapiens) [compound 362]”, the “Peptide exchange” value was “″+++″ (≥50% = +++)”.

With “363 (KVLDVSDLESV; listed as Homo sapiens) [compound 363]”, the “Peptide exchange” value is “″++″ (≥20% = ++)”.
